Experimental data reported in patent publication US20030054004A1 (published 2003).

Experiments:
[1] = target: human lymphotoxin (TNFβ) (human) (UniProt P01374); test: cell-based or functional assay
recombinant human TNFα = recombinant human TNFα (human, UniProt P01375 77-233); test: cell-based or functional assay
Sequence of recombinant human TNFα (P01375 77-233): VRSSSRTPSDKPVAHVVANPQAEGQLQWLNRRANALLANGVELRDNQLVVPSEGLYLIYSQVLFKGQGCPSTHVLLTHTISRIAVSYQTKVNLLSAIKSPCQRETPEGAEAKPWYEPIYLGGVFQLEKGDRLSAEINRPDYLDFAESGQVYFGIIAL

Sequence of human lymphotoxin (TNFβ) (human) (P01374 35-205 limits assumed): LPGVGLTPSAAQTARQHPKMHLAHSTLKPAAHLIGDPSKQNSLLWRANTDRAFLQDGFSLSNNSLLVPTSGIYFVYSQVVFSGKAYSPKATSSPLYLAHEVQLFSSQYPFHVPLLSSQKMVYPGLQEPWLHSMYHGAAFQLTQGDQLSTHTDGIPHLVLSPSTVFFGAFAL

With “p75P-sf2 (p75 extracellular domain lacking the C-terminal 53 amino acids, fused to the IgG1 heavy chain) (from UniProt P20333 23-204) (Fc fusion)” the concentration to half-inhibit human TNFβ at 2 pM, WEHI 164 cytotoxicity [1] was 31 pM.

B1: chimeric mouse/human IgG1 anti-platelet mAb (7E3) (antibody, INN chains, looked up, V domains shown)
VH: EVQLQQSGTVLARPGASVKMSCEASGYTFTNYWMHWVKQRPGQGLEWIGAIYPGNSDTSYIQKFKGKAKLTAVTSTTSVYMELSSLTNEDSAVYYCTLYDGYYVFAYWGQGTLVTVSA
VL: EIVLTQSPVTLSVTPGDSVSLSCRASRDISNNLHWFQQTSHESPRLLIKYASQSMSGIPSRFSGSGSGTDFTLSINSVETEDFGMYFCQQTNSWPYTFGGGTKLEIK
modifications: IgG1
In the case of B1, the IL-6 in supernatant of FS-4 fibroblasts; TNF 0.3 ng/ml, 4 µg/ml antibody (recombinant human TNFα) is reported as 1.6 ng/mL, the IL-6 in supernatant of FS-4 fibroblasts; TNF 1.5 ng/ml, 4 µg/ml antibody (recombinant human TNFα) is reported as 1.96 ng/mL and the IL-6 in supernatant of FS-4 fibroblasts; TNF 7.5 ng/ml, 4 µg/ml antibody (recombinant human TNFα) is reported as 2.16 ng/mL.

B2: p55-sf3 (p55 / IgG1 heavy chain fusion lacking the CH1 domain) (Fc fusion, human, not shown: a dimerising Fc or GST)
heavy: QVCPQGKYIHPQNNSICCTKCHKGTYLYNDCPGPGQDTDCRECESGSFTASENHLRHCLSCSKCRKEMGQVEISSCTVDRDTVCGCRKNQYRHYWSENLFQCFNCSLCLNGTVHLSCQEKQNTVCTCHAGFFLRENECVSCSNCKKSLECTKLCLPQIGTLVTVSS
With B2 the “IC50: concentration of fusion protein required to inhibit 2 ng/ml (39.2 pM) TNFα by 50%, WEHI 164 cytotoxicity” value (recombinant human TNFα) was 100 pM.

B3: p75P-sf3 (as p75P-sf2 but lacking the CH1 domain) (Fc fusion, human, not shown: a dimerising Fc or GST)
heavy: QLPAQVAFTPYAPEPGSTCRLREYYDQTAQMCCSKCSPGQHAKVFCTKTSDTVCDSCEDSTYTQLWNWVPECLSCGSRCSSDQVETQACTREQNRICTCRPGWYCALSKQEGCRLCAPLRKCRPGFGVARPGTETSDVVCKPCAPGTFSNTTSSTDICRPHQICNVVAIPGNASMDAVCTSTSGTLVTVSS
For B3, the “IC50: concentration of fusion protein required to inhibit 2 ng/ml (39.2 pM) TNFα by 50%, WEHI 164 cytotoxicity” value (recombinant human TNFα) was 130 pM.
